Laboratory results reported in article PMC12046049, “Filamin C dimerisation is regulated by HSPB7” (Nature Communications, 2025).

B2: FLNCd24 (domain 24 of filamin C, residues 2630-2724), wild type (domain or fragment, human)
chain: GSKFSSDASKVVTRGPGLSQAFVGQKNSFTVDCSKAGTNMMMVGVHGPKTPCEEVYVKHMGNRVYNVTYTVKEKGDYILIVKWGDESVPGSPFKVKV
notes: residual Gly-Ser overhang left on the N-terminus after TEV cleavage of the His6 tag; filamin C, human, C-terminal Ig-like domain 24, residues 2630-2724; also called FLNCd24 WT; source: E. coli BL21(DE3), purified (HisTrap, TEV cleavage); not shown: His6, N-terminal, cleaved
B4: FLNCd24^T2677D (phosphomimic) (domain or fragment, human)
chain: GSKFSSDASKVVTRGPGLSQAFVGQKNSFTVDCSKAGTNMMMVGVHGPKDPCEEVYVKHMGNRVYNVTYTVKEKGDYILIVKWGDESVPGSPFKVKV
notes: residual Gly-Ser overhang left on the N-terminus after TEV cleavage of the His6 tag; filamin C, human, domain 24, residues 2630-2724, T2677D; source: E. coli BL21(DE3), purified (HisTrap, TEV cleavage); not shown: His6, N-terminal, cleaved
B5: FLNCd24^Y2683E (phosphomimic) (domain or fragment, human)
chain: GSKFSSDASKVVTRGPGLSQAFVGQKNSFTVDCSKAGTNMMMVGVHGPKTPCEEVEVKHMGNRVYNVTYTVKEKGDYILIVKWGDESVPGSPFKVKV
notes: residual Gly-Ser overhang left on the N-terminus after TEV cleavage of the His6 tag; filamin C, human, domain 24, residues 2630-2724, Y2683E; source: E. coli BL21(DE3), purified (HisTrap, TEV cleavage); not shown: His6, N-terminal, cleaved

Assays:
[1] = target: T1, HSPB5ACD (α-crystallin domain of HSPB5) (human); assay: native MS; ACD incubated with C-terminal peptide, peptide titration; 200 mM ammonium acetate pH 6.9; acetonitrile added to the source housing; fit with a Hill slope model for 1:1 binding; conditions: both partners purified
T1 chain: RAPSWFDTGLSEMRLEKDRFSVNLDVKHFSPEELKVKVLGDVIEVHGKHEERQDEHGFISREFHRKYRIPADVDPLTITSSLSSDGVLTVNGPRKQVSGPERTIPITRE

[2] = target: T2, HSPB1ACD (α-crystallin domain of HSPB1) (human); assay: as above; conditions: both partners purified
T2 construct: HSPB1, human, α-crystallin domain; also called ACD of HSPB1

[3] = target: the molecule itself; assay: native MS; titration of FLNCd24 (WT or phosphomimic) alone; dimer to monomers; 200 mM ammonium acetate pH 6.9; three technical repeats
[4] = target: the molecule itself; assay: native MS; FLNCd24 alone, and mixed at a monomer ratio of 1:1 with HSPB7, HSPB7ΔN or HSPB7ACD; 200 mM ammonium acetate pH 6.9 (full-length HSPB7: 1 M)
[5] = target: T3, HSPB7ΔN (residues 78-175 of isoform 2) (human, UniProt Q9UBY9-2 78-175); assay: native MS; HSPB7 construct at a range of FLNCd24 concentrations; competitive homo- and hetero-dimerisation fitted as a system of coupled equilibria; 200 mM ammonium acetate pH 6.9; conditions: both partners purified
T3 construct: residual Gly-Ser overhang left on the N-terminus after TEV cleavage of the His6 tag; HSPB7, human, residues 78-175 of isoform 2 (lacks the N-terminal region); numbers count on: isoform 2 (Q9UBY9-2); source: E. coli BL21(DE3), purified (HisTrap, TEV cleavage, HiTrap Q); not shown: His6, N-terminal, cleaved

[6] = target: B2; assay: crystal structure; HSPB7ACD^C131S and FLNCd24 mixed 4:1, heterodimer isolated by gel filtration in 20 mM HEPES pH 8.0; crystals in 0.1 mM HEPES, 20% w/v PEG 8000, pH 7.0; 2.9 Å; conditions: both partners purified
[7] = target: B2; assay: native MS; HSPB7 construct at a range of FLNCd24 concentrations; competitive homo- and hetero-dimerisation fitted as a system of coupled equilibria; 200 mM ammonium acetate pH 6.9; conditions: both partners purified
[8] = target: B4; assay: as above; conditions: both partners purified
[9] = target: B5; assay: as above; conditions: both partners purified

B1: HSPB5 C-terminal peptide (cognate peptide of HSPB5ACD) (peptide)
chain: ERTIPITRE
modifications: Limits are not printed. 156-164, containing the IPI motif, is taken by convention from the peptide in the HSPB5 ACD-peptide structure PDB 4M5S; check residues come from the IPI motif, not numbered in
For B1, the Kd [1] was no more than 100000 nM.

For ITIPVTFE [HSPB1 C-terminal peptide (cognate peptide of HSPB1ACD)], the Kd [2] was no more than 100000 nM.

In the case of B2, the Kd [3] is reported as 75.9 ± 8.4 nM, the “stoichiometry N” value [4] is reported as 2 and the Kd [5] is reported as 6.7 ± 1.4 nM.

B3: HSPB7ACD^C131S (domain or fragment)
chain: not shown
notes: residual Gly-Ser overhang left on the N-terminus after TEV cleavage of the His6 tag; HSPB7, human, core α-crystallin domain, residues 78-162 of isoform 2, C131S; numbers count on: isoform 2 (Q9UBY9-2); Mutation made to aid crystallisation; source: E. coli BL21(DE3), purified (HisTrap, TEV cleavage, HiTrap Q); not shown: His6, N-terminal, cleaved
B3: binds [6].

For B4, the Kd [3] was 8.5 ± 1 nM.

With B5 the Kd [3] was 4050 ± 557 nM.

B6: HSPB7ACD (α-crystallin domain, residues 78-162 of isoform 2) (domain or fragment)
chain: not shown
notes: residual Gly-Ser overhang left on the N-terminus after TEV cleavage of the His6 tag; HSPB7, human, core α-crystallin domain, residues 78-162 of isoform 2; numbers count on: isoform 2 (Q9UBY9-2); source: E. coli BL21(DE3), purified (HisTrap, TEV cleavage, HiTrap Q); not shown: His6, N-terminal, cleaved
B6 showed a Kd [7] of 3.9 ± 0.9 nM, a Kd [8] of 14.1 ± 0.5 nM and a Kd [9] of 2.2 ± 0.6 nM.
